Laboratory results from IntAct's records for PubMed 9488481.

B1: Death-associated protein kinase 3 (Mus musculus), O54784 (parent)
chain: MSTFRQEDVEDHYEMGEELGSGQFAIVRKCQQKGTGMEYAAKFIKKRRLPSSRRGVSREEIEREVSILREIRHPNIITLHDVFENKTDVVLILELVSGGELFDFLAEKESLTEDEATQFLKQILDGVHYLHSKRIAHFDLKPENIMLLDKHAASPRIKLIDFGIAHRIEAGSEFKNIFGTPEFVAPEIVNYEPLGLEADMWSIGVITYILLSGASPFLGETKQETLTNISAVNYDFDEEYFSSTSELAKDFIRRLLVKDPKRRMTIAQSLEHSWIKVRRREDGARKPERRRLRAARLREYSLKSHSSMPRNTSYASFERFSRVLEDVAAAEQGLRELQRGRRQCRERVCALRAAAEQREARCRDGSAGLGRDLRRLRTELGRTEALRTRAQEEARAALLGAGGLKRRLCRLENRYDALAAQVAAEVQFVRDLVRALEQERLQAECGVR
partner: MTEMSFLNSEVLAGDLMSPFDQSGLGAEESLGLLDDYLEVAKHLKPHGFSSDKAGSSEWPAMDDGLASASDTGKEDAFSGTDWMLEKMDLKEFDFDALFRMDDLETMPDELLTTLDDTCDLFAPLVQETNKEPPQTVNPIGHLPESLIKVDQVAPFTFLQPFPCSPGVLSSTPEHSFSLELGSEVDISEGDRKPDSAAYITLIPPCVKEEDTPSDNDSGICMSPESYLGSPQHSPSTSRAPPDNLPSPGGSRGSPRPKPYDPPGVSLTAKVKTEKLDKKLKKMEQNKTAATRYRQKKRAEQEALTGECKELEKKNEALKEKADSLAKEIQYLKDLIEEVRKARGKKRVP

Variants of: B1
Settings: with atf4_mouse Atf4, Q06507

For V422A;V429A;L436A, which “effect of a mutation on the interaction” value is on record?
The value was “disrupting interaction”.
